In patent publication US12673108B2 (Oxford University Innovation Limited, priority 2021, dated 2026):
Square brackets hold non-standard residues; d marks the D form. Ends that are not written are not given here. Ahx = NCCCCCC(=O)O; βAla = NCCC(=O)O

What was measured:
dystrophin = conditions: in vivo; cited from earlier work
[1] = fmoc spps; Fmoc-beta-Ala-OH preloaded Wang resin (0.19 or 0.46 mmol g-1); PyBOP/NMM; PyBOP/HOAt/DIPEA (or HBTU) for PMO conjugation; conditions: conjugation step, UV-Vis, based on PMO extinction coefficient, scale 10 pmol or 100 pmol (so in the source)
[2] = Toxicological assessment of peptide-PMO (urinary KIM-1, NGAL; serum BUN); assay type: in vivo, C57BL/6 mice; conditions: for urinary KIM-1 levels: single dose 30 mg/kg (2.5-50 mg/kg); for urinary KIM-1 levels / urinary NGAL levels: urine Day 2 and Day 7, normalised to urinary creatinine; for urinary NGAL levels: single dose 30 mg/kg
Description: Female C57BL/6 mice aged 8-10 weeks were administered a single 30 mg/kg dose of peptide-PMO in 0.9% saline by bolus intravenous tail vein injection. Urine was non-invasively collected under chilled conditions at Day 2 and Day 7 post-administration following 20 hours housing in metabolic cages (Tecniplast, UK). Serum was collected from jugular vein at Day 7 at necropsy, as was tibialis anterior, diaphragm and heart tissue.
The same procedure was followed at different single dosage amounts ranging from 2.5 mg/kg up to 50 mg/kg of peptide-PMO in 0.9% saline by intravenous tail vein injection.
Urinary levels of KIM-1 (Kidney injury molecule-1) and NGAL (Neutrophil Gelatinase-Associated Lipocalin) were quantified by ELISA (KIM-1 R&D cat #MKM100, NGAL R&D cat #MLCN20) following appropriate dilution of urine to fit standard curves. Values were normalised to urinary creatinine levels that were quantified at MRC Harwell Institute, Mary Lyon Centre, Oxfordshire, UK. Serum blood urea nitrogen levels were quantified at MRC Harwell Institute, Mary Lyon Centre, Oxfordshire, UK.
All levels were quanitifed on an AU680 Clinical Chemistry Analyser, Beckman Coulter. Quantification of exon skipping efficacy was determined by quantitative RT-PCR of exon 23 skipped and unskipped transcripts and expressed as percentage of skipped versus total (skipped and unskipped) transcripts (see Table 7 for sequences).

[3] = Recovery times of mice after injection with peptide-PMOCAG7 conjugates; assay type: in vivo, C57BL6 mice; conditions: 12.5 mg/kg; HSA-LR mice; age 8-12 weeks
Description: Animal experiments and ASO injections. Experiments were carried out in the University of Oxford according to UK legislation. The intravenous injections in HSA-LR C57BL/6 mice were performed by single or repeated administrations via the tail vein. Doses of 30, 12.5, 7.5 and 5 mg/kg of peptide-PMO-CAG7 (SEQ ID NO: 192) were diluted in 0.9% saline and given at a volume of 5-6 pL/g of body weight. KIM-1 levels in C57BL6 female mice measured by ELISA (R&D cat #MKM100) with samples diluted to fit within standard curve. Values were normalised to urinary creatinine levels (Harwell) to account for urine protein concentration.

human hepatocytes = assay: Hepatocyte cell viability (fluorescent-based assay); conditions: 40 uM
Description: Immortalized myoblasts from healthy individual or DM1 patient with 2600 CTG repeats were cultivated in a growth medium consisting of a mix of M199: DMEM (1:4 ratio; Life technologies) supplemented with 20% FBS (Life technologies), 50 µg/ml gentamycin (Life technologies), 25 pg/ml fetuin, 0.5 ng/ml bFGF, 5 ng/ml EGF and 0.2 pg/ml dexamethasone (Sigma-Aldrich). Myogenic differentiation was induced by switching confluent cell cultures to DMEM medium supplemented with 5 pg/ml insulin (Sigma-Aldrich) for myoblasts. For treatment, WT or DM1 cells are differentiated for 4 days. Then, medium was changed with fresh differentiation medium with peptide-PMOs at a 1, 2, 5 10, 20 or 40 pM concentration. Cells were harvested for analysis 48 h after treatment. Cell viability was quantified in after 2 days of transfection of peptide-PMOs at 40 uM in human hepatocytes or at a 1, 2, 5 10, 20 or 40 pM concentration in human myoblasts using a fluorescent-based assay (Promega).

eteplirsen
levels of dystrophin restoration (dystrophin): approximately 1 % of normal dystrophin levels

Ac-RBRRBRRFQILYRBHBH-(Ab)-PMO (GGCCAAACCTCGGCTTACCTGAAAT; listed as DNA, chemistry not fully specified)
conjugation yield [1]: 26%

Pip9b2 (Ac-R[Ahx]RR[βAla]RRFQILYR[βAla]R[Ahx]R[βAla]; also: PMO conjugate, site not given here) [reference compound]
Serum blood urea nitrogen levels ([2]; 7 days after single dose of 30 mg/kg): elevated

DPEP 3.8 (Ac-R[βAla]RR[βAla]RFQILYR[βAla]H[βAla]H[βAla]; also: PMO conjugate, site not given here)
urinary KIM-1 levels [2]: lowest levels | urinary NGAL levels [2]: lowest levels

pip6a: prior peptide carrier AC-RXRRBRRXR-YQFLI-RXRBRXR-B conjugated to [CAG]7 PMO (SEQ ID NO: 192) (Ac-R[Ahx]RR[βAla]RR[Ahx]RYQFLIR[Ahx]R[βAla]R[Ahx]R[βAla]; also: conjugated to [CAG]7 PMO, site not given here) [reference compound]
Recovery time after injection, Time AV ± SD [3]: >60 min | percentage hepatocyte cell viability (human hepatocytes): cell mortality

DPEP 1.9 (Ac-R[βAla]RR[βAla]RFQILY[βAla]R[βAla]R[βAla]; also: PMO conjugate, site not given here)
urinary KIM-1 levels [2]: lowest levels | urinary NGAL levels [2]: lowest levels

Ac-RBRRBRFQILYBRBR-(E)-PMO (GGCCAAACCTCGGCTTACCTGAAAT; peptide Ac-RBRRBRFQILYBRBR-(E) conjugated, chemistry not fully specified)
conjugation yield [1]: 39%
